According to patent US9844563B2, “Compositions, kits, and methods to induce acquired cytoresistance using stress protein inducers” (FRED HUTCHINSON CANCER RESEARCH CENTER, priority 2014, dated 2017):

Legend:
[1] = Maleate model of AKI (FeS, SnPP, FeS+SnPP); assay type: in vivo, mice; conditions: IV 1 mg FeS and/or 1 μmole SnPP 18 hrs before IP Na maleate 800 mg/Kg; 18 hrs later
From the text: Effects of Fe sucrose (FeS)/tin protoporphyrin (SnPP) on AKI severity. Maleate model of AKI. When injected into rodents, maleate undergoes relatively selective proximal tubule cell uptake via organic anion transporters. Once intracellular accumulation occurs, maleate is a preferred substrate for succinyl-CoA:3-oxoacid CoA transferase. […] Ample levels of CoA are essential for fatty acid “activation”, allowing for their subsequent metabolism through the Krebs cycle, yielding ATP. In the absence of this process, proximal tubule ATP depletion and cell injury result. Additionally, maleate conjugates the sulfhydryl group of glutathione (GSH), culminating in GSH depletion and potential oxidant tubular stress.
The following experiment tested whether FeS, SnPP or combined FeS+SnPP can mitigate this form of acute kidney injury (AKI). Twenty seven mice were subjected to 200 μL IV tail injections of one of the following: 1) vehicle (phosphate buffered saline, PBS; n, 10); 2) 1 mg FeS (American Regent (Shirley, N.Y.; n, 3); 3) 1 μmole SnPP (Frontier Scientific, Logan, Utah; n 7), or FeS+SnPP, n, 7). Eighteen hrs later, all mice received an IP injection of Na maleate (800 mg/Kg; in 500 ul of PBS). […] The severity of kidney injury was assessed by determining plasma blood urea nitrogen (BUN) and plasma creatinine (PCr) concentrations.

heme oxygenase 1 (HO-1) = test: Renal cortical induction of HO-1 by FeS, SnPP and B12 (ELISA, RT-PCR); assay type: in vivo, mice
Experimental: Effects of FeS, SnPP, and B12 on renal cortical induction of heme oxygenase 1 (HO-1). The following experiments assessed the effects of FeS, SnPP, and B12 on the possible induction of the cytoprotective protein HO-1. To this end, mice were injected with each of these agents, as noted above. Either 4 or 18 hrs later, they were anesthetized and the kidneys were removed through a midline abdominal incision. The renal cortices were dissected on ice and then extracted for protein and mRNA. The samples were then assayed for HO-1 protein by ELISA, and HO-1 mRNA by RT-PCR, factored by GAPDH levels. Five normal mice provided control values.

Haptoglobin [2] = test: Cardiac haptoglobin mRNA and protein after N-Mgb, SnPP or both; assay type: in vivo, mice
Experimental: (§1) Thirty-two mice were divided into 4 equal groups: (1) control mice; (2) mice treated with 1 mg of N-Mgb injection (as a bolus through the tail vein); (3) mice treated with […] of SnPP (via tail vein); and (4) mice treated with combined N-Mgb 1 SnPP. After either 4 hours (n=16) or 18 hours (n=16), the mice were deeply anesthetized with pentobarbital (50 mg/kg), the abdomen was opened through a midline abdominal incision, and the kidneys were removed. To determine potential effects on extrarenal organs, a liver lobe and the heart were also removed. The tissues were iced and then extracted for protein and RNA (RNeasy Plus Mini; Qiagen, Valencia, Calif.) and subjected to enzyme linked immunosorbent assay (ELISA) and reverse transcriptase polymerase chain reaction (RT-PCR) for HO-1, haptoglobin, and IL-10 protein and messenger RNAs (mRNAs). Zager et al. J Am Soc Nephrol 2014;25:998-1012; Zager et al. Am J Physiol 2012;303:F139-48. As an assessment of renal function, control mice and the 18 hour after N-Mgb+SnPP—treated mice had blood urea nitrogen (BUN) and plasma creatinine levels measured. Additionally, transverse 10% formalin fixed kidney sections ([…]) were cut and stained with hematoxylin and eosin (H&E) and periodic acid Schiff (PAS) to further assess potential injury.

[3] = Serum creatinine after 2 hr subcutaneous infusion of N-myoglobin (constant SnPP); assay type: in vivo, mice; conditions: 2 hr subcutaneous infusion 1, 3, 6, 12, or 25 mg/Kg, SnPP constant 1 μmole; 18 hrs later
Experimental: Mice were subjected to a 2 hr subcutaneous infusion of 1, 3, 6, 12, or 25 mg/Kg of nitrited myoglobin (holding SnPP at a constant dose of 1 μmole). Eighteen hrs later, potential renal injury was assessed by measuring serum creatinine concentrations.
An obvious concern by applying this prophylactic strategy to patients is potential renal and/or extrarenal toxicities. […] Furthermore, it was previously documented in a cell culture system that nitrite addition markedly reduces myoglobin's cytotoxic effects by 75% (unpublished data, 2014). To assess the potential in vivo margin of safety for N-Mgb+SnPP (see Supplemental FIGs.), the maximal amount of N-Mgb that could be given to mice before nephrotoxicity was observed was tested. Up to 25 times the employed N-Mgb dose (with a constant SnPP dose) could be administered (over 2 hours) without induction of nephrotoxicity (normal BUN and creatinine, 18 hours later).

[4] = Glycerol model of rhabdomyolysis-induced AKI; assay type: in vivo, mice; conditions: IV pretreatment 18 hours before glycerol; 18 hours after glycerol
Experimental: Assessments of cytoresistance. Glycerol model of rhabdomyolysis-induced AKI. Twenty mice were divided into 4 equal groups (controls, mice treated with N-Mgb, SnPP, and mice treated with N-Mgb+SnPP tail vein injections) as described previously. 18 hours later, the mice were briefly anesthetized with isoflurane and immediately injected with 9 mL/kg of 50% glycerol, administered in equally divided doses into each hind limb. At 18 hours after glycerol injection, the mice were anesthetized with pentobarbital, the abdomen was opened, a blood sample for BUN and creatinine assessments was obtained from the vena cava, and the kidneys were resected. The control post-glycerol group and the N-Mgb+SnPP—pretreated glycerol group had kidney sections stained with H&E.
Calculations and statistics. All values are given as the mean […] standard error of the mean. Statistical comparisons were made by unpaired Student's t test. If multiple comparisons were made, the Bonferroni correction was applied. The severity of renal histologic injury in the glycerol AKI model was graded on a […] (least to most severe tubular necrosis and cast formation observed). The histologic results were compared by Wlcoxon rank sum test. Statistical significance was taken as a P value of <0.05.

IL-10 [5] = test: Cardiac IL-10 mRNA and protein after N-Mgb, SnPP or both; assay type: in vivo, mice
Experimental: as §1

HO-1 [6] = test: Liver HO-1 mRNA and protein after N-Mgb, SnPP or both; assay type: in vivo, mice
Experimental: as §1

Haptoglobin [7] = test: Renal cortical haptoglobin mRNA and protein after N-Mgb, SnPP or both; assay type: in vivo, mice
Experimental: as §1

HK-2 cells = test: HK-2 cell injury by MTT assay; assay type: cell-based; conditions: equimolar Na nitrite added to 10 mg/ml myoglobin, 18 hr incubation
Experimental: HK-2 cells (a proximal tubule cell line derived from normal human kidney) were incubated in keratinocyte serum free medium either under normal (control) conditions or in the presence of 10 mg/mL horse skeletal muscle myoglobin or nitrited myoglobin (produced by equimolar Na nitrite addition to 10 mg/ml myoglobin). After 18 hr incubations, the severity of cell injury (% cell death) was assessed by MTT assay. Myoglobin induced 40% cell death (40% decrease in MTT cell uptake), compared to control incubated cells. Nitrite binding to myoglobin reduced cell death by 75%. Thus, nitrite binding is able to reduce myoglobin's cytotoxic effects.

IL-10 [8] = test: Renal cortical IL-10 mRNA and protein after N-Mgb, SnPP or both; assay type: in vivo, mice
Experimental: as §1

IL-10 [9] = test: Liver IL-10 mRNA and protein after N-Mgb, SnPP or both; assay type: in vivo, mice
Experimental: as §1

HO-1 [10] = test: Cardiac HO-1 mRNA and protein after N-Mgb, SnPP or both; assay type: in vivo, mice
Experimental: as §1

HO-1 [11] = test: Renal cortical HO-1 mRNA (RT-PCR) and protein (ELISA) after N-Mgb, SnPP or both; assay type: in vivo, mice
Experimental: as §1

Haptoglobin [12] = test: Liver haptoglobin mRNA and protein after N-Mgb, SnPP or both; assay type: in vivo, mice
Experimental: as §1

[13] = renal cortex, 4 h after Rx treatment

Molecule: Fe sucrose [FeS]
- reductions in BUN/PCr concentrations, maleate-induced AKI [1]: Neither SnPP alone nor FeS alone significantly altered the severity of renal injury
- renal cortical HO-1 protein levels (heme oxygenase 1 (HO-1); 4 hr post IV injection): marked HO-1 protein increases
- renal cortical HO-1 protein levels (heme oxygenase 1 (HO-1); 18 hr time point): remained elevated at the 18 hr time point, particularly in the case of FeS administration
- renal cortical HO-1 protein levels (heme oxygenase 1 (HO-1); 18 hr time point, listed as Fe sucrose): persists for 18 hrs

Molecule: cyanocobalamin [vitamin B12]
- renal cortical HO-1 protein levels (heme oxygenase 1 (HO-1); 4 hr post IV injection): marked HO-1 protein increases
- renal cortical HO-1 protein levels (heme oxygenase 1 (HO-1); 18 hr time point): persists for 18 hrs

B1: N-Mgb: horse skeletal muscle myoglobin converted into a nitrited form by equimolar Na nitrite (protein, UniProt P68082 2-154, looked up)
Myoglobin: GLSDGEWQQVLNVWGKVEADIAGHGQEVLIRLFTGHPETLEKFDKFKHLKTEAEMKASEDLKKHGTVVLTALGGILKKKGHHEAELKPLAQSHATKHKIPIKYLEFISDAIIHVLHSKHPGDFGADAQGAMTKALELFRNDIAAKYKELGFQG
modifications: nitrited with sodium nitrite
- Cardiac mRNA Haptoglobin (Haptoglobin [2]; 4 h after Rx treatment): 0.75 ± 0.10
- Cardiac protein Haptoglobin (Haptoglobin [2]; 4 h after Rx treatment): 40.4 ± 8.6
- Cardiac mRNA Haptoglobin (Haptoglobin [2]; 18 h after Rx treatment): 0.53 ± 0.21
- Cardiac protein Haptoglobin (Haptoglobin [2]; 18 h after Rx treatment): 249.6 ± 15.0
- serum creatinine concentrations (potential renal injury) [3]: No significant increase
- protection against glycerol-induced AKI (BUN/creatinine levels) [4]: modest protection
- Cardiac mRNA IL-10 (IL-10 [5]; 4 h after Rx treatment): 0.86 ± 0.11
- Cardiac protein IL-10 (IL-10 [5]; 4 h after Rx treatment): 21 ± 12
- Cardiac mRNA IL-10 (IL-10 [5]; 18 h after Rx treatment): 0.67 ± 0.10
- Cardiac protein IL-10 (IL-10 [5]; 18 h after Rx treatment): 14.5 ± 10^
- Liver mRNA HO-1 (HO-1 [6]; 4 h after Rx treatment): 1.83 ± 0.33
- Liver protein HO-1 protein (HO-1 [6]; 4 h after Rx treatment): 17 ± 2
- Liver mRNA HO-1 (HO-1 [6]; 18 h after Rx treatment): 0.82 ± 0.07
- Liver protein HO-1 protein (HO-1 [6]; 18 h after Rx treatment): 14.9 ± 0.3
- Kidney mRNA cortex Haptoglobin (Haptoglobin [7]; 18 h after Rx treatment): 0.24 ± 0.04
- Kidney protein Haptoglobin (Haptoglobin [7]; 18 h after Rx treatment): 183.8 ± 20.4
- increase in renal cortical haptoglobin protein levels (Haptoglobin [7]; 18 hours after injections): comparably increased
- Kidney Haptoglobin (protein) (Haptoglobin [7]; [13]): 17.6 ± 1^
- Kidney mRNA Haptoglobin (Haptoglobin [7]; [13]): 1.94 ± 0.31
- reduction of myoglobin-induced cell death by nitrite binding (HK-2 cells): 75%
- increase in renal IL-10 mRNA (IL-10 [8]; 4 hours after injection): either minimal or no impact
- Kidney mRNA cortex IL-10 (IL-10 [8]; 18 h after Rx treatment): 0.43 ± 0.10
- Kidney protein IL-10 (IL-10 [8]; 18 h after Rx treatment): 292 ± 54
- increase in renal IL-10 protein (IL-10 [8]; 18 hours after injection): absence of IL-10 protein increases
- Kidney IL-10 (protein) (IL-10 [8]; [13]): 265 ± 54
- Kidney mRNA IL-10 (IL-10 [8]; [13]): 1.45 ± 0.6
- Liver mRNA IL-10 (IL-10 [9]; 4 h after Rx treatment): 0.67 ± 0.46
- Liver protein IL-10 (IL-10 [9]; 4 h after Rx treatment): 286 ± 32
- Liver mRNA IL-10 (IL-10 [9]; 18 h after Rx treatment): 0.06 ± 0.02
- Liver protein IL-10 (IL-10 [9]; 18 h after Rx treatment): 5988 ± 549
- Cardiac Protein HO-1 (HO-1 [10]; 4 h after Rx treatment): 1.64 ± 0.19
- Cardiac mRNA HO-1 (HO-1 [10]; 4 h after Rx treatment): 0.09 ± 0.01
- Cardiac mRNA HO-1 (HO-1 [10]; 18 h after Rx treatment): 0.08 ± 0.01
- increase in renal HO-1 mRNA (HO-1 [11]; 4 hours after IV injection, vs controls): only modest increases
- Kidney mRNA cortex HO-1 (HO-1 [11]; 18 h after Rx treatment): 0.58 ± 0.18
- Kidney protein HO-1 (HO-1 [11]; 18 h after Rx treatment): 30 ± 6
- increase in renal HO-1 protein (HO-1 [11]; 18 hours post-treatment, vs control values): only relatively small HO-1 protein increases
- Kidney HO-1 protein (HO-1 [11]; [13]): 36.1 ± 2.9
- Kidney mRNA HO-1 (HO-1 [11]; [13]): 3.38 ± 0.38
- Liver mRNA Haptoglobin (Haptoglobin [12]; 4 h after Rx treatment): 0.98 ± 0.1
- Liver protein Haptoglobin (Haptoglobin [12]; 4 h after Rx treatment): 359.5 ± 39.6
- Liver mRNA Haptoglobin (Haptoglobin [12]; 18 h after Rx treatment): 0.91 ± 0.07
- Liver protein Haptoglobin (Haptoglobin [12]; 18 h after Rx treatment): 358.8 ± 32.8
